A short description of the series: label from the status in PepcDB records.
On to “MREPMTWRTSPGQTADASRHPAIPSRSPLASRALSFLGALSLLTFAATPVLAESTPTAAPPQFAVESPKAASSLLLSVAHAGKRLVAVGDRGHILLSDDDGKTWTQAKVPTRQLLTSVFFVNERKGWAVGHDAQILVSDDAGSTWARQFEDLGREAPLLDIWFADEQHGLAVGAYGALLETRDGGQHWEDVSERLDNEDQFHLNAIAAVKDNGLLVVGEAGSLFRSKDWGATWEKLEGPYEGSLFGAIGTADAGGVLVYGLRGHLFRSADFGDSWEEIPLKAASGDLEFGLSDGALLADGRIVVVGHGGSVLESTDGGRSFSVFNRPDRLSLAGVSATGDGHLILVGQGGVHLAAANGAALEQQQ”, for which the protein production entry is “failed”.

Take “MRERRYSSTSPERLAAALFDVAAESGLEGASVREVAKRAGVSIGAVQHHFSTKDEMFAFALRTLVDKLLARLSEVERGGDPARALFAAMSQLLPLDEARSREAHVMAAFAVRAATSPSLAEIRRKTLFTIRTGLSAVLIGIGTPEAETRAALLLATVDGLALDAIGSPALYPPEYLEHALDIQIGMILQGADVVPSSSIELAS”: the protein production entry is “not failed”. Consider “MRETFEIGEIVTGIYKTGKYIGEVTNSRPGSYVVKVLAVLKHPVQGDLHNVKQANVPFFHERRALAFREQTNIPEQMVKKYEGEIPDYTESLKLALETQMNSFSEDDSPFAERSLETLQQLKKDYKL”, for which the protein production result is “not failed”. Turning to “MRETLERLLASETFGRSERARKLIRYLVEREQAGEADRLKGFSIAMDVFGKDGDFDPSTDAVVRVQAGRLRELLQQYFANEGIAEPVRIAIPRGGYVPAYELNAIRLPEVAKPAEQAAAAAAPAEHPSAAEDAVAPDASLAPAAAPVPSVARHLRFFWMAIAVVIAMLGVLILRQGSGALLAGGHLPATFESAGLTSSIAPSPVSEALPLVYIAVKASGADAGRIAASLRAGLSGFDTIDFIGRDTVDKTDPVNNPTSFIFDILPGPNTGDITIELQSMASGRVLLSRNLTPADSTPTAIEDRVADMLSSALPASGTIYNYIEQTGTPNGLTECLLLNDKYYLDQNARTHEAAYRCLETLANSGAKSSLVYSELASLQVEAVSDHYVYPPNATIEKAVEFAHRGVQMGPTSPYAHRAYGYVSSRLGNTDEAIRWMRKAYELNPYDLGMAAAYGYGLIFAGRYAEGTPILTHAAETFSGHSTWWDYGLFVGDFMLGDMNKAIAASMALRTTATKSHYLAARLIGAKAAGQDSLVTTLLNELNTKFPKFAADPRSTFVERKYPADLTDRLVQALRAAGLGSAS”, the protein production result was “failed”. For “MRFAVLGSGSQGNGTLIASGDTFILVDCGFSLRETERRLALLGVSAAQLSAVLVTHEHADHVHGVGLLSRRYNVPVYLSQGTLRGMRKPVEVAGFLACGQSLHIGSLEVTAARVEHDAYEPLQYVVSDGKRRFGMLTDLGSYDALLLERYQGLDALLIEANHCRDLLARGHYPAFLKQRVGGMQGHLNNHQAARLVHELGWNNLQHLVLAHLSSKNNLPHLARQCFVDTLGCDPDWLQVANQEHGLDWREIALEHHHHHH” the value was “not failed”; for “MRFCIMKKAVVLLSGGLDSTTCLALAKSQGFACYALSFSYGQRHSAELCAATRIAKHMGAADHKIVTLDIALFGGSALTDASIEVPEFKESPEIPVTYVPARNTIFLAMALGYAESIGARDIFIGASSVDYSHYPDCRPEFIESFQSLANLATKAGIEGDRFTINAPLQYLSKVQTIQLGTELGVDYGLTVSCYQANEAGEACGQCDSCTFRKRGFKSAGVDDPTRYQKCVHI”, “failed”; for “MRFDGAAGLAQRMPMLGRVVQAAPLALLLGCCLILTLPASGRTLFYILCSLSLLFLPLAMFQRLEAKPKALNLLLSFALLIFIGFRAAWLWYFPAPTDAGLFPVAFAYQLSNKIWLSALPLLLFPLWSPFRERLSPAGATLALVSASALLSMITLKAWYDAHGVRVGLGSLYATGAAYLLSAIHFFALLLFHPFRLKKWQWLGLCLLIALQFMSIVATGTRAALLVYLFVLGCALLWRFGLHQSWRTYAIAALLSVATLWLSWAAVGSRVKQAQADLIAYSQGNADTSLGIRFSLWDAGVHAVREQPWGQSIQARDVLFHQLVKDGALNKAALIMRDVHLHNEWLEILSLQGLPGALSWLIFLLGFGVYGWKRGGFFRRFALFYIGFWLVFGLSDVLLLSPQIAMFGAMFAALGLYLAPIFDARDERRL”, “failed”. Turning to “MRFKAELMNAPEMRRALYRIAHEIVEANKGTEGLALVGIHTRGIPLAHRIARFIAEFEGKEVPVGVLDITLYRDDLTEIGYRPQVRETRIPFDLTGKAIVLVDDVLYTGRTARAALDALIDLGRPRRIYLAVLVDRGHRELPIRADFVGKNVPTSRSEVVKVKVEEVDGEDRVELWEREGA”, the protein production result is reported as “not failed”.

As to “MRFKAIFVRVTKELLRDKRTLALMLVAPVLVLTLMYFIFDTNNDVNLEVGVDESVPNKIVNALPSDKVKIKEYDSPSSIKKTIVNSDLDAYIEKKGDKLDVTYKNENPSNTGTTKQLLGSAIQKNKLQDMAKVINKIPSNIKQGNSAQGEQITLDNHYLYGNSDSTFFDKMFPILIGFFVFFFVFLISGIALLRERTKGTLERLLATSVKRSEIVFGYLAGYGMFAVLQTLIIVFYAIYLLKIDVAGSIWWVLLINILIALSALAMGIFVSTFANSEFQMVQFIPLVVIPQVFFSGIIPLDNVADWVSSIGYIFPLRYAGDALTNIMIKGEGFNNIWFDLSILLVFIIGFTVLNIIGLKRYRKV”, the protein production entry was “not failed”.

Consider “MRFKFLRGKLNHPIKCVCDNLSMDNQIMSTELYSQILEVIALVPFGKVATYGQIARLAGLPKHARLVGYTLKNIDQASDIPWHRIINAQGKVSTYHLNQIGENIQLNKLRDEGIVVLNGKINLKKYQWLVSQS”, for which the protein production result is on record as “failed”. As for “MRFLLMRSLLVHPCGGSIINVRSTTTSAQYVASRSRDPVFEKLMDKYKNLLKVIAIQDLTLANPTADPPSLSIEFLSRLSQKLHLNRGAASFLRKYPHIFHVLYDPVKAEPFCRLTDVAMEISRQEALAITATLSLVVDRLVRLLSMSISKSIPLRAVFKVWRELGLPDDFEDSVISKNPHLFKLSDGHESNTHILELVQEEEKRLEFEAAVEKWRVVECSKEDCSVDRTEIQFSFKHSYPPGMRLSKTFKAKVKEWQRLPYVGPYEDMVGKKKSRSGVMGIEKRAVAIAHEFLNLTVEKMVEVEKISHFRKCFGIDLNIRDLFLDHPGMFYVSTKGKRHTVFLREAYERGRLIDPNPVYDARRKLLDLVLLGRHAALSESGNTSMSEQE”, the protein production result was “failed”.

For “MRFVLRILKALALLLVLLVITAAGWLFIRPPELLRVGDGYAAKIVCSNVFIAGREAEDVLHDDVQAPGNPLLRLLRVSVDRDNDRVTARFMGLFAPSYALYRGAFGCTSVPDGNFEAAAKAAPFDPPAKMQANDALWPEGEGTGNPADGKIAALLSDAGVAGPAMRAIVVVRNGRIVTEAYGPGFSAKTPLIGWSMTKTVNATILGRLMLGGKISFDDDNLLAQWKNDARAKIKVSDLLGMESGLAFNENYGDVADVTRMLYLDPDMVSLPAGAPMEAAPGQRFRYSSGTAVLLSRIWMDRVGNAQAAFSYPHDALFAPLGMTSAVFELDARGTFAGSSYLYATAHDWARFGQFLLQDGVWNGQRLLPEGFVGAMRTPTAASNGRYSQGQAWLSPGRGSSAGAGLPEDTFWLTGHDGQSVAIVPSANLVVVRLGLTPSRLGYQPQTLLKAILAALPQSGAQQQAGSQRQAQPQP”, the protein production result is given as “failed”.

Turning to “MRFWGKFFGFVIGFMFGRFFGALLGLWLGHLYDKRPGGGASFSQILGQAKNRQGIFFNTTFAVMGHVAKASGRVTETDIRIATLLMDQMRLTGDARKEAQQAFREGKEPDFDLCSSLQAFRAVTQGRQELVQMFIEIQIQTALSDGELDAAEHAILMTVAQELGYGRQQLDELLKRWQAEFRFHQTSSGNKTSITDAYHLLGITAEATDQEVKRAYRKLMNEHHPDKLVAKGLPPEMMEIANRKAQDIQAAYDRVKSERGMR”, the protein production result is listed as “failed”.

The record behind these values is a protein production outcome set (Wang et al. 2014).
